Results: publication PMC4700666, “The structure of a prophenoloxidase (PPO) from Anopheles gambiae provides new insights into the mechanism of PPO activation” (BMC Biology, 2016)

Target: the molecule itself
Assay: SEC; size exclusion chromatography of purified AgPPO8 against standard proteins; eluted at a similar retention volume as bovine γ-globulin

B1: Anopheles gambiae prophenoloxidase 8 (AgPPO8) (enzyme, UniProt Q8MZM3 1-700, looked up)
chain: MATLTQKFHGLLQHPLEPLFLPKNDGTLFYDLPERFLTSRYSPIGQNLANRFGPNSPASSQVSNDTGVPPTVVTIKDLDELPDLTFATWIKRRDSFSLFNPEHRKAAGKLTKLFLDQPNADRLVDVAAYARDRLNAPLFQYALSVALLHRPDTKSVSVPSLLHLFPDQFIDPAAQVRMMEEGSIVLDENRMPIPIPMNYTATDAEPEQRMAFFREDIGVNLHHWHWHLVYPASGPPDVVRKDRRGELFYYMHQQLLARYQIDRYAQGLGRIEPLANLREPVREAYYPKLLRTSNNRTFCPRYPGMTISDVARSADRLEVRIADIESWLPRVLEAIDAGFAVSDDGVRVPLDETRGIDVLGNILERSAISINRNLYGDVHNMGHVLLAFIHDPRGTYLESSGVMGGVATAMRDPIFYRWHKFIDNIFLRNKARLAPYTMAELSNSNVTLEALETQLDRAGGAVNSFVTFWQRSQVDLRAGIDFSAAGSAFVSFTHLQCAPFVYRLRINSTARSNRQDTVRIFLLPRQNEQGRPLSFEDRRLLAIELDSFRVNLRPGMNNIVRQSSNSSVTIPFERTFGNVEQANAGNAQSRFCGCGWPAHMLLPKGNANGVEFDLFAMVSRFEDDNANVNYDENAGCDDSYAFCGLRDRVYPSRRAMGFPFDRRASNGVRSVADFVAPYKNMRLATVTLRFMNTIIDRPTN
notes: Prophenoloxidase 8 (PPO8) of Anopheles gambiae, zymogen; cDNA amplified from a cDNA pool of second instar larvae; each subunit in the crystal comprises 700 residues (numbered 1-700; pro-region 17-81, domain I 1-16 and 82-196, domain II 197-435, domain III 436-697); Expressed as a SUMO fusion with an N-terminal 6xHis tag; also called A. gambiae PPO8; source: E. coli BL21 gold (DE3), purified …
In the case of B1, the “stoichiometry N” value is reported as 2.
